Broadly, the IC50 is the point on the concentration scale where inhibition reaches its midpoint. A low value points to greater potency. For orientation: Kd means the concentration at which binding is half-saturated.

To fix the notation:
B1: P18 (peptide)
peptide: Ac-[mAcF]SFAEY[Trp(6-Cl)]ALLA
modifications: linker 1-C via SP9; reading uncertain; also: linker thiol capped with iodoacetamide
notes: also called Ac-(mAcF)SFAEY(6ClW)ALLA, SP9-linked macrocycle
B2: P2 (peptide)
peptide: Ac-GTSFAYYWNLLA-NH2
notes: also called acyclic counterpart of P3 and P4
B3: P19 (peptide)
peptide: Ac-[pAcF]SFAEY[Trp(6-Cl)]ALLA
modifications: linker 1-C via SP4; reading uncertain; also: linker thiol capped with iodoacetamide
notes: also called Ac-(pAcF)SFAEY(6ClW)ALLA, SP4-linked macrocycle
B4: p53 macrocyclic peptidomimetic P3 (i/i+6(CO)-linked, SP6-based linker) (peptide)
peptide: GTSFA[Phe(4-Ac)]YWNLLA
modifications: linker 6-C via SP6; reading uncertain; also: linker thiol capped with iodoacetamide
B5: P16 (peptide)
peptide: Ac-[mAcF]SFAEY[Trp(6-Cl)]ALLA
modifications: linker 1-C via SP8; also: linker thiol capped with iodoacetamide
notes: also called Ac-(mAcF)SFAEY(6ClW)ALLA, SP8-linked macrocycle
B6: P17 (peptide)
peptide: Ac-[pAcF]SFAEY[Trp(6-Cl)]ALLA
modifications: linker 1-C via SP9; reading uncertain; also: linker thiol capped with iodoacetamide
notes: also called Ac-(pAcF)SFAEY(6ClW)ALLA, SP9-linked macrocycle
B7: P11 (peptide)
peptide: Ac-[Phe(4-Ac)]SFAEY[Trp(6-Cl)]ALLA-NH2
SMILES: CC(=O)N[C@@H](Cc1ccc(C(C)=O)cc1)C(=O)N[C@@H](CO)C(=O)N[C@@H](Cc1ccccc1)C(=O)N[C@@H](C)C(=O)N[C@@H](CCC(=O)O)C(=O)N[C@@H](Cc1ccc(O)cc1)C(=O)N[C@@H](Cc1c[nH]c2cc(Cl)ccc12)C(=O)N[C@@H](C)C(=O)N[C@@H](CC(C)C)C(=O)N[C@@H](CC(C)C)C(=O)N[C@@H](C)C(N)=O
notes: also called Ac-(pAcF)SFAEY(6ClW)ALLA-NH2
B8: p53 macrocyclic peptidomimetic P5 (i/i+6(CO)-linked, distance-mismatched SP4-based linker; negative control) (peptide)
peptide: GTSFA[Phe(4-Ac)]YWNLLA
modifications: linker 6-C via SP4; reading uncertain; also: linker thiol capped with iodoacetamide
notes: also called SP4-based macrocycle P5
B9: p53 macrocyclic peptidomimetic P7 (i/i+10(CO)-linked, SP6-based linker) (peptide)
peptide: G[Phe(4-Ac)]SFAEYWNLLA
modifications: linker 2-C via SP6; reading uncertain; also: linker thiol capped with iodoacetamide
B10: p53 macrocyclic peptidomimetic P8 (i/i+10(CO)-linked, SP8-based linker) (peptide)
peptide: G[Phe(4-Ac)]SFAEYWNLLA
modifications: bridge 2-C; not fully specified (bridges); also: linker thiol capped with iodoacetamide

Bridges are numbered along the chain shown (N, C = ends). Where no end group is shown, it is not given here. [ ]: non-standard residue; d: D form. The star is where a group is joined. SP8 = 3-amino-N-(3-(aminooxy)propyl)-4-(mercaptomethyl)benzamide, macrocycle-forming linker reagent; mAcF = meta-acetyl-L-phenylalanine, its ketone forms an oxime with the linker; pAcF = para-acetyl-L-phenylalanine, its ketone forms an oxime with the linker; FITC = O=C1OC2(c3ccc(O)cc3Oc3cc(O)ccc32)c2ccc(NC(=S)*)cc21; Trp(6-Cl) = N[C@@H](Cc1c[nH]c2cc(Cl)ccc12)C(=O)O; Phe(4-Ac) = CC(=O)c1ccc(C[C@H](N)C(=O)O)cc1; SP4 = not defined here; SP6 = not defined here; SP9 = not defined here; βAla = NCCC(=O)O

T1 sequence (Q00987 1-109): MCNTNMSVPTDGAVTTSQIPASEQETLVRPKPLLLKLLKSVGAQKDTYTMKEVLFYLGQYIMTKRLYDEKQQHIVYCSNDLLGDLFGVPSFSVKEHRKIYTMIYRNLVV

One assay concerns the target T1, HDM2-YFP fusion protein (p53-binding domain of human HDM2, residues 1-109, C-terminally fused to Yellow … (human, UniProt Q00987 1-109)).
T1 construct: range 1-109; Expressed in E. coli BL21(DE3) from pET22-HDM2-YFP-His; also called HMD2; HDM2-YFP-His; not shown: Yellow Fluorescent Protein (YFP); C-terminal His tag
Kind of assay: SPR inhibition assay: inhibitor added to soluble HDM2-YFP, binding to immobilized biotin-SGSG-p53(15-29) is inhibited. On the procedure:
(§1) The surface plasmon resonance (SPR)-based inhibition assays were performed using a BIAcore T100 instrument. […] Running buffer and sample buffer contained 10 mM HEPES buffer, pH 7.4 with 150 mM NaCl, 3 mM EDTA and 0.05% v/v Tween 20. […] With increasing concentrations of the inhibitor, binding of HDM2 (or HDMX) to the surface is inhibited, leading to a decrease in biosensor response. HDM2/HDMX plus inhibitor samples were injected at a rate of 30 uL/min over a 2 minute interval by a 2 minute dissociation period and a 10-second regeneration step using 10 mM HCl. Specific binding curves for each concentration of inhibitor were obtained by subtracting the response in the reference surface from the response in the p53-coated surface.
B1 came in with an IC50 of 400 nM.
The same measure, in the same setting: the figure for B2 is 1510 nM; for GTSFA[pAcF]YWNLLA (linker 6-C via SP8; also: linker thiol capped with iodoacetamide) [p53 macrocyclic peptidomimetic P4 (i/i+6(CO)-linked, SP8-based linker)] it is 1500 nM; for Ac-G[pAcF]SFAEYWNLLA (linker 2-C via SP8; also: linker thiol capped with iodoacetamide) [P12] it is 145 nM.
Same read-out and setting: in the case of B3 it was over 50000 nM.
B4 yielded an IC50 of 870 nM.
B5 yielded an IC50 of 105 nM.
B6 yielded an IC50 of 305 nM.
On the same count and under the same terms, in the case of B7 it was 30 nM; in that of Ac-[mAcF]SFAEYWNLLA (linker 1-C via SP8; also: linker thiol capped with iodoacetamide) [P14], 255 nM.
Take Ac-[pAcF]SFAEYWNLLA (linker 1-C via SP8; also: linker thiol capped with iodoacetamide) [P13]: the IC50 was found to be 135 nM.

A further assay has as its target T2, HDMX-YFP fusion protein (p53-binding domain of human HDMX, residues 1-109, C-terminally fused to Yellow … (human, UniProt O15151 1-109)).
T2 construct: range 1-109; Expressed in E. coli BL21(DE3) from pET22-HDMX-YFP-His; also called HMDX; HDM4; not shown: Yellow Fluorescent Protein (YFP); C-terminal His tag
T2 sequence (looked up): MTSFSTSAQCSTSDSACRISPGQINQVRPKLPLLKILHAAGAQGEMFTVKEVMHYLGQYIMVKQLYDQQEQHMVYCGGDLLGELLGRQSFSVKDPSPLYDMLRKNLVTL
Nature of the assay: SPR inhibition assay, competitor immobilised biotin-p53(15-29); the sentence does not say which homolog. On the procedure:
as §1
Molecule B8 displayed an IC50 of about 10000 nM.

For another assay, the target named is T2, HDMX-YFP fusion protein (p53-binding …). Kind of assay: SPR inhibition assay, competitor immobilised biotin-p53(15-29). How it is done:
as §1
Take B9: the IC50 was determined as 910 nM.
Same read-out and setting: the figure for B10 is 340 nM.

A further assay has the same target. Kind of assay: SPR inhibition assay: inhibitor added to soluble HDMX-YFP, binding to immobilized biotin-SGSG-p53(15-29) is inhibited. On the procedure: as §1
For the molecule B2, the IC50 came out at 7500 nM.
On the same count and under the same terms, the figure for GTSFA[pAcF]YWNLLA (linker 6-C via SP8; also: linker thiol capped with iodoacetamide) [p53 macrocyclic peptidomimetic P4 (i/i+6(CO)-linked, SP8-based linker)] is 3500 nM; for B4 it is 4100 nM.

Another assay addresses T1, HDM2-YFP fusion protein (p53-binding …). Kind of assay: fluorescence polarization, fluorescein-labeled compound (25-200 nM) titrated with HDM2 (10 nM to 2 µM). How it is done:
HDM2 binding studies. […] In the assay, 25-200 nM of the fluorescein-labeled compound and HDM2 concentrations varying from 10 nM to 2 μM were tested. The experiments were performed at room temperature in black 96-well plates with a final volume of 75 μL in PBS buffer with addition of 1% DMSO. Fluorescence was detected at excitation/emission of 470/520 nm and change in fluorescence polarization was plotted against the varying protein concentration.
In the case of {FITC-βAla}-G[pAcF]SFAEYWNLLA (linker 2-C via SP8; also: linker thiol capped with iodoacetamide, also called fluorescein-conjugated P8) [FITC-β-Ala-P8 (fluorescein-labeled derivative of macrocycle P8)], binding was characterised by a dissociation constant (Kd) of 63 nM.

These data come from patent US20170037084A1 (UNIVERSITY OF ROCHESTER, published 2017).
